What was measured:
[1] = biological target: the molecule itself; assay: native gel or EMSA; murine cardiac lysates of sham and TAC hearts (50 mM potassium phosphate, 1 mM EDTA, 1 mM beta-mercaptoethanol, pH 7.4, 0.1% Triton X-100) on 10% native-PAGE at 4°C, blotted with anti-CKM; dimer to monomers
[2] = biological target: the molecule itself; assay: native gel or EMSA; human rCKM, nonacetylated or in vitro acetylated, on 10% native-PAGE at 4°C (running buffer 50 mM Tris-Base, 50 mM MOPS, 0.0375% SDS, pH 7.8), blotted with anti-CKM; dimer and monomer bands by densitometry; dimer to monomers
[3] = biological target: the molecule itself; assay: cross-linking; quantitative crosslinking MS (XL-MS) with the PIR crosslinker BDP-NHP on rCKM: control, acetylated, and Sirt2-deacetylated; links mapped to PDB 1U6R
[4] = biological target: the molecule itself; assay: native gel or EMSA; CKM enriched from TAC-stressed mouse hearts, incubated with or without Sirt2 in vitro, then native-PAGE and anti-CKM blot; dimer to monomers

B1: Murine CKM in cardiac lysates of sham and TAC-stressed hearts (enzyme)
chain: not shown
modifications: lysine acetylation, significantly higher in the failing (TAC) hearts
notes: creatine kinase M-type (CKM), mouse (129S1/SvImJ); Sham and TAC hearts are kept as one molecule; the treatment is named in the rows; also called muscle CK isoform; source: endogenous, mouse heart lysate (sham and TAC, 12 weeks)
fold decrease of the dimer content, TAC against sham hearts [1]: 1.4 fold
fold increase of the monomer, TAC against sham hearts [1]: 2.8 fold

B2: Human recombinant CKM, in vitro acetylated (enzyme)
chain: not shown
modifications: acetyl-lysine at several lysines after in vitro acetylation (lysine residues 11, 32 and 196 are named; full list in Figure 5D)
notes: creatine kinase M-type (muscle form, CKM), human; 381-amino acid polypeptide; Same protein as m1 after in vitro acetylation; also called acetylated rCKM; in vitro acetylated rCKM
fold decrease of the dimer band against nonacetylated rCKM [2]: 2.1 fold
fold increase of the monomer band against nonacetylated rCKM [2]: 5.6 fold
fold reduction of the homodimer crosslink K11-K11 against control rCKM [3]: 2 fold
fold reduction of the homodimer crosslink K196-K196 against control rCKM [3]: 9 fold

B3: Human recombinant CKM, in vitro acetylated and then deacetylated by Sirt2 (enzyme)
chain: not shown
modifications: acetyl-lysines removed in part by Sirt2 (lysine residues 11, 32 and 196 robustly deacetylated)
notes: creatine kinase M-type (muscle form, CKM), human; 381-amino acid polypeptide; Same protein as m2 after the in vitro deacetylation reaction; also called Sirt2-treated rCKM; Sirt2 deacetylated rCKM
fold increase of the homodimer crosslink K11-K11 against acetylated rCKM [3]: 1.3 fold
fold increase of the homodimer crosslink K196-K196 against acetylated rCKM [3]: 1.8 fold

B4: Human recombinant creatine kinase MM (rCKM), nonacetylated (enzyme)
chain: not shown
notes: creatine kinase M-type (muscle form, CKM), human; 381-amino acid polypeptide; The rows are of the chain with itself (MM homodimer); also called Human CK MM; CK muscle form; source: bought: R & D Systems (catalog 9070-CK) and Abcam (catalog ab73652)
stoichiometry N [2]: 2

B5: CKM enriched from TAC-stressed mouse hearts, deacetylated in vitro by Sirt2 (enzyme)
chain: not shown
modifications: lysine acetylation of failing-heart CKM, reduced by Sirt2
notes: creatine kinase M-type (CKM), mouse (129S1/SvImJ); also called enriched CKM from TAC-stressed hearts + Sirt2; source: enriched from TAC mouse hearts (Blue Sepharose, Deae Sephadex A-50), then incubated with Sirt2
fold decrease of the monomer against enriched TAC CKM without Sirt2 [4]: 3.5 fold

Reference: paper PMC7934860, “Acetylation of muscle creatine kinase negatively impacts high-energy phosphotransfer in heart failure” (JCI Insight, 2021)
